Consider four molecules from patent US20250213713A1, “Antibody-Drug Conjugates Targeting uPARAP Comprising Exatecan Derivatives” (ADCENDO APS, priority 2022, published 2025).

For one assay, the system named is NCI-N87 cells. Put plainly: Inhibition of in vitro proliferation of tumor cells (CTG), NCI-N87. The class given is cell-based. The settings on record: read-out: NCI-N87 IC50; Table 8, 6 days of culture. How it is done:
(§1) To test the inhibitory activity of the pharmaceutical compounds on the in vitro proliferation of NCI-N87, JIMT-1 and MBA-MB-231 tumor cells. The cells were treated with the compounds at different concentrations in vitro, and after 6 days of culture, the proliferation of cells was detected using the CTG (CellTiter-Glo® Luminescent Cell Viability Assay, Promega, Cat. No. G7558) reagent, and the in vitro activity of the compounds was evaluated according to the IC50 value. […]
(§2) There were 8 concentrations in total for the small molecule compounds: 300 nM, 100 nM, 30 nM, 10 nM, 3 nM, 1 nM, 0.3 nM, and 0.1 nM. • 5. Sample adding: the prepared samples to be detected at different concentrations were added to the culture plate, and two duplicate wells were set for each sample. […] Plate reading: the 96-well cell culture plate was taken out, placed in a microplate reader, and measured for the chemiluminescence using the microplate reader.
(§3) To test the inhibitory activity of the pharmaceutical compounds on the in vitro proliferation of NCI-N87, JIMT-1 and MBA-MB-231 tumor cells. The cells were treated with compounds at different concentrations in vitro, and after 6 days of culture, the proliferation of cells was detected using CTG (CellTiter-Glo® Luminescent Cell Viability Assay, Promega, Cat. No. G7558) reagents, and the in vitro activity of the compounds was evaluated according to the IC50 value. • 1. […]

Another assay relates to JIMT-1 cells. Put plainly: Inhibition of in vitro proliferation of tumor cells (CTG), JIMT-1. The class given is cell-based. The settings on record: read-out: JIMT-1 IC50; Table 8, 6 days of culture. Here is the method:
as §1, §2, §3

The target of assay [1] is T1, soluble full-length uPARAP (UniProt Q9UBG0 31-1414, limits assumed).
T1 construct: also called CD280
T1 sequence (looked up): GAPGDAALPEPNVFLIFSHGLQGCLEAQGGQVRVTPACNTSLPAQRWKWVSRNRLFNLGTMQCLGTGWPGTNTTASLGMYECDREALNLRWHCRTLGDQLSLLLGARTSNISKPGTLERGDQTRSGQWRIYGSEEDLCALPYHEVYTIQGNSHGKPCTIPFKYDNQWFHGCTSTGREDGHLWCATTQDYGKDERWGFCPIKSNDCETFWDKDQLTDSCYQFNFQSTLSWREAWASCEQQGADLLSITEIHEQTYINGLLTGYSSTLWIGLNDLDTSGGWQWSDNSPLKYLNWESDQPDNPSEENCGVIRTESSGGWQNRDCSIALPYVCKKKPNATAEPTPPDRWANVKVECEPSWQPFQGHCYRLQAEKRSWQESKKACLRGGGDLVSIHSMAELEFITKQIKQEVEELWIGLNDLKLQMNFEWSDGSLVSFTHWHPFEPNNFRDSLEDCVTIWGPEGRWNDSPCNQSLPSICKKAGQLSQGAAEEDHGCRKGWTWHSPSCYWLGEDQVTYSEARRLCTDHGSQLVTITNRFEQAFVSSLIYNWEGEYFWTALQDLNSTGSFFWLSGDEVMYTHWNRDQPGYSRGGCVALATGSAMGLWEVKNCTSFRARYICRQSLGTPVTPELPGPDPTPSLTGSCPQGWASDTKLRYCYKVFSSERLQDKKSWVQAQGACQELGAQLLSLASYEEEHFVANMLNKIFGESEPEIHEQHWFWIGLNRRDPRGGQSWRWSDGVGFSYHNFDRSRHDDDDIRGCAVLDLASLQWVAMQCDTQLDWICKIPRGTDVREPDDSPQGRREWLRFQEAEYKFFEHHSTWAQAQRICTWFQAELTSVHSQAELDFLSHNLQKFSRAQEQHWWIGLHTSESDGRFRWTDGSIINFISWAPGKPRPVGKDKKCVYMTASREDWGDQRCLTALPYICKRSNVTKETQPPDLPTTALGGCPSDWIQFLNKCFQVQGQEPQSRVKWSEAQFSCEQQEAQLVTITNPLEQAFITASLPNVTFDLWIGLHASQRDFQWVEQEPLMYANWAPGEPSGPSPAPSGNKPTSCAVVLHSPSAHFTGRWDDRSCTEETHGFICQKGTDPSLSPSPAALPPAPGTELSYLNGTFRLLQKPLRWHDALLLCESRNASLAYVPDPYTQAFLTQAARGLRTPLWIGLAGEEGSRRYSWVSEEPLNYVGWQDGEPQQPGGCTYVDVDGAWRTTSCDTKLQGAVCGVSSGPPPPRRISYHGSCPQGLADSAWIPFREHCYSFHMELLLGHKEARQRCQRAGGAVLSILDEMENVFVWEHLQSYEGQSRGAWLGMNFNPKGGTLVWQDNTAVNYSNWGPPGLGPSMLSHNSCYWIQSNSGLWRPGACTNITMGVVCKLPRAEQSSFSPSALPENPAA
Put plainly: SPR (Biacore 2000), antibody captured on anti-human Fc CM5 chip, soluble full-length uPARAP as analyte, 25 C, Langmuir 1:1 global fit. How it is done:
(§4) SPR analyses were performed for determination of the affinity of the obtained antibodies towards uPARAP. These analyses were performed using a Biacore 2000 instrument (Biaffin GmbH, Kassel, Germany) using a CM5 sensor chip with an anti-human Fc capture surface for antibody binding. The analysis temperature was set at 25° C. Binding of antibody onto this surface was followed by passing soluble full-length uPARAP over the chip, and the resulting association and dissociation rates were derived from the resulting binding curves. For kinetic interaction analyses, a flowrate of 30 μL/min was used and the analysis buffer consisted of 10 mM HEPES pH 7.4, 150 mM NaCl, 3 mM EDTA, 0.05% Tween 20.
(§5) LC4HC3 and LC0HC0 were analyzed by SPR as described in Materials and Methods above. In particular, the binding kinetics of LC4HC3 were compared with those of LC0HC0 (Table 5).

For assay [2], the target named is T1, soluble full-length uPARAP. Nature of the assay: SPR (Biacore 2000), ratio of KD values against LC0HC0. How it is done:
as §4, §5

`CC[C@@]1(O)C(=O)OCc2c1cc1n(c2=O)Cc2c-1nc1cc(F)c(C)c3c1c2[C@@H](NC(=O)CCS)CC3` [P-III-2]: the half-maximal inhibitory concentration (IC50) in the assay on NCI-N87 cells and in the assay on JIMT-1 cells was 108 nM throughout.
As to `CC[C@@]1(O)C(=O)OCc2c1cc1n(c2=O)Cc2c-1nc1cc(F)c(C)c3c1c2[C@@H](NC(=O)CC(C)(C)O)CC3` [P-III-21], the values for the concentration for half-maximal inhibition (IC50) with NCI-N87 cells and in the assay on JIMT-1 cells were 4.75 nM and 2.87 nM, respectively.

B1: 980.2 LC0HC0 (chimeric antibody: variable domains of murine 9b7 fused to human IgG1 kappa constant regions) (antibody, V domains shown)
VH: QVHLVQSGPELKKPGETVKISCKASGYIFIDYGMHWVKQAPGKGLKWMGSINTKSGVSTYAAEFKGRFAFSLETSASTAYLQINNLKNEDTATYFCARPPYYSQYGSYWGQGTLVTVSA
VL: DIVMTQSQKFMSTSVGDRVSVTCKASQNVDTYVVWYQQKPGQSPKPLIYSASSRFSGVPDRFTGTGSGTDFTLTINNVQSEDLAEYFCQQYHNSPLTFGGGTKLEIKR
notes: Complete IgG1 kappa, expressed in CHO cells; captured by anti-human Fc in the SPR assay; also called parental antibody
In assay [1], B1 registered a Kd of 0.86 nM, an off-rate (koff) of 5.33e-05 s⁻¹ and an association rate constant (kon) of 62300 M⁻¹ s⁻¹.

B2: 980.2 LC4HC3 (humanized 9b7 antibody) (antibody, human IgG1, kappa, V domains shown)
VH: QVQLVQSGAEVKKPGASVKVSCKASGYIFIDYGMHWVRQAPGQRLEWMGSINTKSGVSTYAAEFKGRVTIYSDTSASTAYMELSSLRSEDTAVYFCARPPYYSQYGSYWGQGTLVTVSS
VL: EIVMTQSPDSLAVSLGERATINCKASQNVDTYVVWYQQKPGQPPQPLIYSASSRFSGVPDRFSGSGSGTDFTLTISSLQAEDVAIYYCQQYHNSPLTFGGGTKVEIKR
notes: Complete IgG1 kappa, expressed in CHO cells; captured by anti-human Fc in the SPR assay
Consider B2, for which, in assay [2], the “fold higher ligand affinity than LC0HC0” value is roughly 1.7 fold. In assay [1], this molecule came in with a Kd of 0.5 nM, a koff of 4.04e-05 s⁻¹ and an association rate constant (kon) of 81300 M⁻¹ s⁻¹.
